Source: patent publication US20180000755A1 (UNIVERSITY OF TOKYO, published 2018)

Target: T1, fragment consisting of the region of the 500th to 656th amino acids of FROUNT protein (Homo sapiens (Human), UniProt Q9BW27 500-656)
T1 construct: Fragment used in the NMR analysis; No tag is mentioned; also called FROUNT C-terminal fragment
T1 sequence: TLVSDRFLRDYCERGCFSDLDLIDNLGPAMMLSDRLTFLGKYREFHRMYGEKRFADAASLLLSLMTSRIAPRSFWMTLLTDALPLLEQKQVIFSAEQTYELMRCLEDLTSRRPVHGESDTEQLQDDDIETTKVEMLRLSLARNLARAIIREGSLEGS
Assay: NMR chemical shift perturbation

binding result: binds
B1: CCR2 pro-C region fragment of 16 residues (SEQ ID NO:3) (peptide)
peptide: EKFRRYLSVFFRKHIT
notes: Peptide used in the NMR analysis; No biotinylation is mentioned
